Test results: IntAct's records for PubMed 25910212

B1: Phospholamban (Homo sapiens), P26678 (parent)
chain: MEKVQYLTRSAIRRASTIEMPQQARQKLQNLFINFCLILICLLLICIIVMLL
B2: Cyclin-dependent kinase 4 (Homo sapiens), P11802 (parent)
chain: MATSRYEPVAEIGVGAYGTVYKARDPHSGHFVALKSVRVPNGGGGGGGLPISTVREVALLRRLEAFEHPNVVRLMDVCATSRTDREIKVTLVFEHVDQDLRTYLDKAPPPGLPAETIKDLMRQFLRGLDFLHANCIVHRDLKPENILVTSGGTVKLADFGLARIYSYQMALTPVVVTLWYRAPEVLLQSTYATPVDMWSVGCIFAEMFRRKPLFCGNSEADQLGKIFDLIGLPPEDDWPRDVSLPRGAFPPRGPRPVQSVVPEMEESGAQLLLEMLTFNPHKRISAFRALQHSYLHKDEGNPE
partner: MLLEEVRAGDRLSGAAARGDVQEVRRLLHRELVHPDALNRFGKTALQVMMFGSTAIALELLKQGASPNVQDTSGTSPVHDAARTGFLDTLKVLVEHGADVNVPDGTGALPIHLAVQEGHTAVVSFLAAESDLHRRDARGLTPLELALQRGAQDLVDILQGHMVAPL
B3: Krev interaction trapped protein 1 (Homo sapiens), O00522 (parent)
chain: MGNPENIEDAYVAVIRPKNTASLNSREYRAKSYEILLHEVPIEGQKKKRKKVLLETKLQGNSEITQGILDYVVETTKPISPANQGIRGKRVVLMKKFPLDGEKMGREASLFIVPSVVKDNTKYTYTPGCPIFYCLQDIMRVCSESSTHFATLTARMLIALDKWLDERHAQSHFIPALFRPSPLERIKTNVINPAYATESGQTENSLHMGYSALEIKSKMLALEKADTCIYNPLFGSDLQYTNRVDKVVINPYFGLGAPDYSKIQIPKQEKWQRSMSSVTEDKERQWVDDFPLHRSACEGDSELLSRLLSERFSVNQLDSDHWAPIHYACWYGKVEATRILLEKGKCNPNLLNGQLSSPLHFAAGGGHAEIVQILLNHPETDRHITDQQGRSPLNICEENKQNNWEEAAKLLKEAINKPYEKVRIYRMDGSYRSVELKHGNNTTVQQIMEGMRLSQETQQYFTIWICSENLSLQLKPYHKPLQHVRDWPEILAELTNLDPQRETPQLFLRRDVRLPLEVEKQIEDPLAILILFDEARYNLLKGFYTAPDAKLITLASLLLQIVYGNYESKKHKQGFLNEENLKSIVPVTKLKSKAPHWTNRILHEYKNLSTSEGVSKEMHHLQRMFLQNCWEIPTYGAAFFTGQIFTKASPSNHKVIPVYVGVNIKGLHLLNMETKALLISLKYGCFMWQLGDTDTCFQIHSMENKMSFIVHTKQAGLVVKLLMKLNGQLMPTERNS
B4: Glycogen phosphorylase, liver form (Homo sapiens), P06737 (parent)
chain: MAKPLTDQEKRRQISIRGIVGVENVAELKKSFNRHLHFTLVKDRNVATTRDYYFALAHTVRDHLVGRWIRTQQHYYDKCPKRVYYLSLEFYMGRTLQNTMINLGLQNACDEAIYQLGLDIEELEEIEEDAGLGNGGLGRLAACFLDSMATLGLAAYGYGIRYEYGIFNQKIRDGWQVEEADDWLRYGNPWEKSRPEFMLPVHFYGKVEHTNTGTKWIDTQVVLALPYDTPVPGYMNNTVNTMRLWSARAPNDFNLRDFNVGDYIQAVLDRNLAENISRVLYPNDNFFEGKELRLKQEYFVVAATLQDIIRRFKASKFGSTRGAGTVFDAFPDQVAIQLNDTHPALAIPELMRIFVDIEKLPWSKAWELTQKTFAYTNHTVLPEALERWPVDLVEKLLPRHLEIIYEINQKHLDRIVALFPKDVDRLRRMSLIEEEGSKRINMAHLCIVGSHAVNGVAKIHSDIVKTKVFKDFSELEPDKFQNKTNGITPRRWLLLCNPGLAELIAEKIGEDYVKDLSQLTKLHSFLGDDVFLRELAKVKQENKLKFSQFLETEYKVKINPSSMFDVQVKRIHEYKRQLLNCLHVITMYNRIKKDPKKLFVPRTVIIGGKAAPGYHMAKMIIKLITSVADVVNNDPMVGSKLKVIFLENYRVSLAEKVIPATDLSEQISTAGTEASGTGNMKFMLNGALTIGTMDGANVEMAEEAGEENLFIFGMRIDDVAALDKKGYEAKEYYEALPELKLVIDQIDNGFFSPKQPDLFKDIINMLFYHDRFKVFADYEAYVKCQDKVSQLYMNPKAWNTMVLKNIAASGKFSSDRTIKEYAQNIWNVEPSDLKISLSNESNKVNGN
partner: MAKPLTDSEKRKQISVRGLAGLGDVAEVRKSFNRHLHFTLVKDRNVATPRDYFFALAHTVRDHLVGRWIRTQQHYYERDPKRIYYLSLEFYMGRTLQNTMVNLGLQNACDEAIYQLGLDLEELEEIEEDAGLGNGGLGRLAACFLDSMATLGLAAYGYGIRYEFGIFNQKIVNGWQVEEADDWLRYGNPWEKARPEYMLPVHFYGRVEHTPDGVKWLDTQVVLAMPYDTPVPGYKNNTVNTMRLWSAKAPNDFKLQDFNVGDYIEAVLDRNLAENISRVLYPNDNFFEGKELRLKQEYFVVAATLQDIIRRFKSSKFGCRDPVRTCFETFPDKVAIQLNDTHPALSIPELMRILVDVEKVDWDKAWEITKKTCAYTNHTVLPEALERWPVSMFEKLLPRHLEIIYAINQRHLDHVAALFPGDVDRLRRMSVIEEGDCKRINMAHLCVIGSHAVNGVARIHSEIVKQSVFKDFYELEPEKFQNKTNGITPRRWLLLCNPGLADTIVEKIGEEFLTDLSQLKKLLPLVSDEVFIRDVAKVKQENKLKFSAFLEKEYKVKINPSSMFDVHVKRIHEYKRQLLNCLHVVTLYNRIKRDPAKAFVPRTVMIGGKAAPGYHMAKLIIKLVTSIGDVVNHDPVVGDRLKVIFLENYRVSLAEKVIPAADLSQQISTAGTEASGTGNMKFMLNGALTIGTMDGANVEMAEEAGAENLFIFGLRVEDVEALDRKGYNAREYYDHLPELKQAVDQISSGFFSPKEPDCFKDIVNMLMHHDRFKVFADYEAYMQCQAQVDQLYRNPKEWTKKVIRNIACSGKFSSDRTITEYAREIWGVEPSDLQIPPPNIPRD
B5: Probetacellulin (Homo sapiens), P35070 (parent)
chain: MDRAARCSGASSLPLLLALALGLVILHCVVADGNSTRSPETNGLLCGDPEENCAATTTQSKRKGHFSRCPKQYKHYCIKGRCRFVVAEQTPSCVCDEGYIGARCERVDLFYLRGDRGQILVICLIAVMVVFIILVIGVCTCCHPLRKRRKRKKKEEEMETLGKDITPINEDIEETNIA
B6: Low density lipoprotein receptor adapter protein 1 (Homo sapiens), Q5SW96 (parent)
chain: MDALKSAGRALIRSPSLAKQSWGGGGRHRKLPENWTDTRETLLEGMLFSLKYLGMTLVEQPKGEELSAAAIKRIVATAKASGKKLQKVTLKVSPRGIILTDNLTNQLIENVSIYRISYCTADKMHDKVFAYIAQSQHNQSLECHAFLCTKRKMAQAVTLTVAQAFKVAFEFWQVSKEEKEKRDKASQEGGDVLGARQDCTPSLKSLVATGNLLDLEETAKAPLSTVSANTTNMDEVPRPQALSGSSVVWELDDGLDEAFSRLAQSRTNPQVLDTGLTAQDMHYAQCLSPVDWDKPDSSGTEQDDLFSF
partner: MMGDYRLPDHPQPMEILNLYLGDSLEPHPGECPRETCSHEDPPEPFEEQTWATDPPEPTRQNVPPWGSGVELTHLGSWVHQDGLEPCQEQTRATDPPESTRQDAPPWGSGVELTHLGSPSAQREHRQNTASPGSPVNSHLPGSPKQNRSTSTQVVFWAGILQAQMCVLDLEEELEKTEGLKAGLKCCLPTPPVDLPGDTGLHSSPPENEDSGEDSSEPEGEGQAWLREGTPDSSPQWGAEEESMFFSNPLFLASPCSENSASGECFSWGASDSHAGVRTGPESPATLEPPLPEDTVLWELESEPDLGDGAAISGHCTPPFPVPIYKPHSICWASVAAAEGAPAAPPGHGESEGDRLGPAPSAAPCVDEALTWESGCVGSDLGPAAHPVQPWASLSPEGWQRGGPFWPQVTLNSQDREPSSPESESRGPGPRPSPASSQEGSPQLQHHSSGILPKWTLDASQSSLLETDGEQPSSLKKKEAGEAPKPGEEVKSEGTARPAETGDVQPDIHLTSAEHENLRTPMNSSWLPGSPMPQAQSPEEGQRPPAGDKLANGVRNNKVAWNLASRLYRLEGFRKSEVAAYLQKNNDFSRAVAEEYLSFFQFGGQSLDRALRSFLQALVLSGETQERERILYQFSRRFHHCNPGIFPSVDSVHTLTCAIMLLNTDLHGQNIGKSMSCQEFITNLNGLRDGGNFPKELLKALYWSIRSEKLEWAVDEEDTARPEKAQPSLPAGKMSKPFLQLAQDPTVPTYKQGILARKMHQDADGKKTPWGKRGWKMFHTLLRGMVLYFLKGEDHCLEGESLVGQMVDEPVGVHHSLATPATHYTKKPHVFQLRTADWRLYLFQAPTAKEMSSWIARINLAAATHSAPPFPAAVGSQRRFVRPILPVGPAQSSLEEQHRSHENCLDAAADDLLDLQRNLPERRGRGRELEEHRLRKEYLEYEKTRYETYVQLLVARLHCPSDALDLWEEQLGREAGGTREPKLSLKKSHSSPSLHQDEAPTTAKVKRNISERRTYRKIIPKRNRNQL
B7: Adiponectin (Homo sapiens), Q15848 (parent)
chain: MLLLGAVLLLLALPGHDQETTTQGPGVLLPLPKGACTGWMAGIPGHPGHNGAPGRDGRDGTPGEKGEKGDPGLIGPKGDIGETGVPGAEGPRGFPGIQGRKGEPGEGAYVYRSAFSVGLETYVTIPNMPIRFTKIFYNQQNHYDGSTGKFHCNIPGLYYFAYHITVYMKDVKVSLFKKDKAMLFTYDQYQENNVDQASGSVLLHLEVGDQVWLQVYGEGERNGLYADNDNDSTFTGFLLYHDTN

Variants of: B1
Details: with BCL2L13, Q9BXK5
Chain of BCL2L13, Q9BXK5 (Q9BXK5 whole entry): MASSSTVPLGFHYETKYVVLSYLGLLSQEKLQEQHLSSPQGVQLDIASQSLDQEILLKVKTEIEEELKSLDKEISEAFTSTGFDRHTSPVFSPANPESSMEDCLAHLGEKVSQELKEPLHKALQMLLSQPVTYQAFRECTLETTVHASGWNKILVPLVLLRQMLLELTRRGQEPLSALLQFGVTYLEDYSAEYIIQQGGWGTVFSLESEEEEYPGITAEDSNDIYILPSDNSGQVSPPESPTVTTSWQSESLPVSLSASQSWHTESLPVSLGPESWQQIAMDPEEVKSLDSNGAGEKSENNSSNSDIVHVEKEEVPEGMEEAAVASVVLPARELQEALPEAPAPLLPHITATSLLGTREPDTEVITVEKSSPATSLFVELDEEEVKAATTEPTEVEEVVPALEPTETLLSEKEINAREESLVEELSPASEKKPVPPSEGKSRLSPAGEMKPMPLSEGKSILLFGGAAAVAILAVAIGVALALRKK

Row | effect of a mutation on the interaction | Variant
1 | with no effect | R9C

Variants of: B1
Details: with eda_human EDA

Row | effect of a mutation on the interaction | Variant
2 | with no effect | R9C

Variants of: B2
Details: with cdn2d_human CDKN2D

Row | effect of a mutation on the interaction | Variant
3 | with no effect | R24C
4 | with no effect | R24H
5 | with no effect | S52N
6 | with no effect | N41S

Variants of: B3
Details: with ccm2_human CCM2, Q9BSQ5
Chain of ccm2_human CCM2, Q9BSQ5 (Q9BSQ5 whole entry): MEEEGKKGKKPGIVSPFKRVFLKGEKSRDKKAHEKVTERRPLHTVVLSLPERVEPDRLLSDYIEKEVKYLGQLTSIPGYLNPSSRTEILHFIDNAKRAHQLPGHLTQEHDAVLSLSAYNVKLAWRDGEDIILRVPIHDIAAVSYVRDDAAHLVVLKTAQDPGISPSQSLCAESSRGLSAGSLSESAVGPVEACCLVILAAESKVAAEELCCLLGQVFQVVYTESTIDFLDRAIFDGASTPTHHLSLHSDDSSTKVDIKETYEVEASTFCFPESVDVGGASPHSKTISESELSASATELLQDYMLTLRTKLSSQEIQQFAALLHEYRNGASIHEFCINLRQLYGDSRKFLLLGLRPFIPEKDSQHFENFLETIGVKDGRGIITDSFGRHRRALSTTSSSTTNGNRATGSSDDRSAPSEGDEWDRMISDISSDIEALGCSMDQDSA

Row | effect of a mutation on the interaction | Variant
7 | with no effect | D137G

Variants of: B4
Details: with pygb_human PYGB

Row | effect of a mutation on the interaction | Variant
8 | with no effect | N377K
9 | with no effect | N339S

Variants of: B5
Details: with sgta_human SGTA
Target sequence in this assay (O43765 whole entry): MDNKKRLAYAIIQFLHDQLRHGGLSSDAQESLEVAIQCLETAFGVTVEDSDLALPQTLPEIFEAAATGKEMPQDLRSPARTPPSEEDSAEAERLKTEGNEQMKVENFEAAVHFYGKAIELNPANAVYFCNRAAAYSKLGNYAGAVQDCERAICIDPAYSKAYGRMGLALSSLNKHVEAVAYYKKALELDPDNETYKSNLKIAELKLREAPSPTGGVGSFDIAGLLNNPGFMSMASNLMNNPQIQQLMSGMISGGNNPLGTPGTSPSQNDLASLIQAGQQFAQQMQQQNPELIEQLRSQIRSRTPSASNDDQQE

Row | effect of a mutation on the interaction | Variant
10 | with no effect | C7G

Variants of: B6
Details: with PSD4, Q8NDX1-2

Row | effect of a mutation on the interaction | Variant
11 | with no effect | R238W

Variants of: B7
Details: with bni3l_human BNIP3L

Row | effect of a mutation on the interaction | Variant
12 | with no effect | I164T

Variants of: B7
Details: with sgta_human SGTA
Target sequence in this assay (O43765 whole entry): as above

Row | effect of a mutation on the interaction | Variant
13 | with no effect | I164T
